The results in this text go back to a protein production outcome set (Wang et al. 2014).

The data set in a line: label from the status in PepcDB records.
Consider “VGVRRENATATGVLLIPDGPDCPRPYPILTWGPSTSAQRHVGQDKTIVNANGNTPLVTRLASQGYVLVSPDYLGLGDSDYPFHPYLHLFTEVSSTIDAVRAARDVLWHSNTPLSNKVMLSGFSQGGQAALAVQREIEAHQSLSQEFSLVASAPISGPYALSQTILDSWSGRNK”, for which the protein production result is “failed”.
For “SIDAICAYFYAGYDVPRVLNEGGWFFLENILLIKSVGGRKPPLTDNKLRIKFLQTTKMTHVPNREPSSLFRFAAFSMIENKTINSSTVHDAYGIVVRVGNITRPDFVPQASENTILSQFLEFEIKNSWGKSLICVASGYTCELFVQLWRELGLELGYHWNFGMNPTICVLRFWNVDDHEGRQCLISHNGASKITFNQSYPEINMDRVRTQFLQRMQTPELGEVVDEN”, the protein production result was “not failed”.
In the case of “PIDLITVGSLIELQDSQNPFQYWIVSVIENVGGRLRLRYVGLEDTESYDQWLFYLDYRLRPVGWCQENKYRMDPPSEIYPLKMASEWKCTLEKSLIDAAKFPLPMEVFKDHADL”, the protein production result was “not failed”.
The entry for “MVKLDRYIGSSVFMAILAVLGIILGLASLFAFIDEMGAVNETYTVVDVMSYVALTAPRRVYEMLPMAGLIGCLIGLGSLASNSELTIMRAAGVSVGRIVWAVMKPMLVLMLVGVLVGEYVAPATETQAQASRALAQGSGDAQSSKHGLWHRQGDEFIHINAVQPNGLLYGVTRYHFDDQRHMLSSSFARQARFHEDYWQLTDVTTTYFRDGHTEVISVPGERWDVALSPQLLSTVVMAPESLSISGLWGYIHYLADQGLNNGRYWLAFWVKVLQPLVTAALVLMAISFIFGPLRSVTLGQRVFTGVLVGFTFRIAQDLLGPSSLVFGFSPLFAVLVPAGICAVAGVWLLRRAG” is “failed”.
The entry for “MRGLSRRVQAMKPSATVAVNAKALELRRQGVDLVALTAGEPDFDTPEHVKEAARRALAQGKTKYAPPAGIPELREALAEKFRRENGLSVTPEETIVTVGGKQALFNLFQAILDPGDEVIVLSPYWVSYPEMVRFAGGVVVEVETLPEEGFVPDPERVRRAITPRTKALVVNSPNNPTGAVYPKEVLEALARLAVEHDFYLVSDEIYEHLLYEGEHFSPGRVAPEHTLTVNGAAKAFAMTGWRIGYACGPKEVIKAMASVSSQSTTSPDTIAQWATLEALTNQEASRAFVEMAREAYRRRRDLLLEGLTALGLKAVRPSGAFYVLMDTSPIAPDEVRAAERLLEAGVAVVPGTDFAAFGHVRLSYATSEENLRKALERFARVLGRA” is “not failed”; for “MHIKIDDLTGRQVVSLVNEHLHSMTLMSPPESIHALGLEKLRGPEITFWSAWEGDELAGCGALKELDTRHGEIKSMRTSASHLRKGVAKQVLQHIIEEAEKRGYERLSLETGSMASFEPARKLYESFGFQYCEPFADYGEDPNSVFMTKKLLEHHHHHH” it is “not failed”.
Under “MFSFLEKNPFFFTLAFIFVFAIAGLVEILPNFFKSARPIEGLRPYTVLETAGRQIYIQEGCYHCHSQLIRPFQAEVDRYGAYSLSGEYAYDRPFLWGSKRIGPDLHRVGDYRTTDWHEKHMFDPKSVVPHSIMPAYKHLFTKKSDFDTAYAEALTQKKVFGVPYDTENGVKLGSVEEAKKAYLEEAKKITADMKDKRVLEAIERGEVLEIVALIAYLNSLGNSRINANQNAK” stands “failed”; under “MAGTSQMNNGRSWMQGEKMIPNKDDAEEFANKAKNAVNSGDYDGAIADIERAIKASPRSVPYHLIKADALYRKGDYEDALDVLNFAETIEKNNPELLSLKSICYGSLGKFNESKIEATKAIKADPNYPFAYYNRAKAEQYLEEYDIAKKDLQKYLEMQPNDPDAYMDLADMEYHEGDYKKALQHVNTAIKKDKESTDAHDLKLNILLAQKDIENYLKELLEAFKDTEDFKYIGTLVETLKSVGSFDTAEDILKEFIKIYKDEPFLYDALARVYYDQDRKDDAYRTYEELLKSNDDREAKIYWFDFLLDDGSYDRLIGEIEKSGLKDDEVLEIKYIAEDQKGDHKAALSTADDLLKLDRTPYNTSLYGSQLRKLGRLDESIKALSEFDDDPDVAYELFLAYMDRGDVHSASKYLKTSIENSEDDDDVISNVLEGVSKMMDHSDFQSVNDFLDGLGKENDNLYILTEAMHAINSGVFEGYEKGKEKFLGLDEHKEEVCEFANNIVELTEGKAKAFLEKFIEDNCGENEMEE”, “failed”.
As to “MQMMSELFASGTVVDAVLIFLLVEAIGVIGYWLWRKHGIAPADFLPGMISGALMLLALRAVLAGAGWMVPTLCLLAAGGAHLVDVLRRWR”, the protein production entry is recorded as “failed”.
Under “MKYKAAIFDMDGTILDTSADLTSALNYAFEQTGHRHDFTVEDIKNFFGSGVVVAVTRALAYEAGSSRESLVAFGTKDEQIPEAVTQTEVNRVLEVFKPYYADHCQIKTGPFPGILDLMKNLRQKGVKLAVVSNKPNEAVQVLVEELFPGSFDFALGEKSGIRRKPAPDMTSECVKVLGVPRDKCVYIGDSEIDIQTARNSEMDEIAVNWGFRSVPFLQKHGATVIVDTAEKLEEAILGE” stands “not failed”.
The entry for “MFAYSARLFLRPLWSDDLGVLLDLLDTASSRSGLLDSPDNDVTRYLRDNAARLIHENDVTRPHSGIFLRDGKEPRLIGITALAGKEAHFFCWIAPAFRGQGFATEASRLMLHFADEALRLPSLTAAYDHADAAAEKLLTKLGFSE” is “failed”; for “MKKVFDVWDVETAKRFLEIIKDEPIYYPALIALHTGMRAGEILSLKWCDVNFETRVISIVKSERKNRGLKTVNLKTKTSKRAVYMNDILYKELKNLYEITKPKPDDFVCPRLPTGNLTVNYLSRKFKKLVKKHNFPLIRFHDLRHTFATLMLSLGVNTKIVAEILGHSDIKLTADTYSHVLPTMQEEAMKEFVKLWKLEHHHHHH” it is “not failed”.
The entry for “MKKASFVYSENQLSYQFHSTHPFNHQRLRLTYDLLKSMDALDDSEIVAPRVATEAELRLIHDQAFIDAVKAAGNGTLSDGVALNYGLGTEDTPIFKNMHEAAALLVGGTLTAVDQVMEGHAEHACHLGGGLHHGFRGKASGFCVYNDSSIAIEYMRRKFGARVLYIDTDAHHGDGVQWAFYEEDDVCTLSIHETGRYLFPGTGNFNEKGQGEGYGYSINIPLDAFTEDDSFLFAYEQAVTNVVKFFKPDVILTQNGADAHFHDPLTHLCASMRTFRYIPQLAHALAHEYCEGRWIAVGGGGYDIWRVVPRAWAMIWLEMTDQLQKANGPLPERWLSKWTTYAQHPLPSHWEDENEELPTIPRRDEITEKNKKIVEKALYHIYTELKTQT” is “failed”; for “MLLTLPAPLRRALWAQVRRELPRECVGALGGWVRGEQVQAHALYPLPNVAADPEREYLADPGDLLRVVRAMQREGLDLVALYHSHPHGPAAPSASDRRLAAYPVPYLIADPAAEVLRAYLLPGGEEVEVRSADESNLEHHHHHH” it is “failed”; for “GSSGSSGMGNSKSGALSKEILEELQLNTKFSEEELCSWYQSFLKDCPTGRITQQQFQSIYAKFFPDTDPKAYAQHVFRSFDSNLDGTLDFKEYVIALHMTTAGKTNQKLEWAFSLYDVDGNGTISKNEVLEIVMAIFKMITPEDVKLLPDDENTPEKRAEKIWKYFGKNDDDKLTEKEFIEGTLANKEILRLIQFEPQKVKEKMKNA” it is “not failed”.
For “MPGSLRKMPVWLPIVILLVAMASIQGGASLAKSLFPLVGAPGVTALRLALGTLILIAFFKPWRLRFAKEQRLPLLFYGVSLGGMNYLFYLSIQTVPLGIAVALEFTGPLAVALFSSRRPVDFVWVVLAVLGLWFLLPLGQDVSHVDLTGCALALGAGACWAIYILSGQRAGAEHGPATVAIGSLIAALIFVPIGALQAGEALWHWSVIPLGLAVAILSTALPYSLEMIALTRLPTRTFGTLMSMEPALAAVSGMIFLGETLTPIQLLALGAIIAASMGSTLTVRKESKIKELDIN”, the protein production result was “failed”.
Consider “MDDQSGDQMRPELTMPPAEAEALRMAYEEAEVILEYGSGGSTVVAAELPGKHVTSVESDRAWARMMKAWLAANPPAEGTEVNIVWTDIGPTGDWGHPVSDAKWRSYPDYPLAVWRTEGFRHPDVVLVDGRFRVGCALATAFSITRPVTLLFDDYSQRRWQHQVEEFLGAPLMIGRLAAFQVEPQPIPPGSLMQLIRTMTSP”, for which the protein production result is “not failed”.
The entry for “MFILSAQRLSGTQVFRRLAEGCTGYSVSSGCRQRRRCCPGAPQRPRRVRVNALQLQSGLADPLDPKSEAEVREHLRSNSPAERALGINYARYLDESTRYDILLEMMEDTDPQVRYAAVTQLATVGSHDRQRTLKAVRKILWNTEEDASVRAGAADVLGGLRFHEAFPDLEKLFHESKDWVVRFSIIAALGEMGVREAFPILVEALHANKEPLVQLAAIGALGELGDERARVYLEPLVNSSDASIVERARFALDALDARGSERT” is “not failed”.
With “MSILKVIKQKWVALGALLGSGALVGLSTNLAKVAYGQDLAPFPFLTWSLAGATLILGSISFLTKQTPPTNTGAIKYYFIAGFFSVAGSNLILFSAVSHVGVSFVVLVISLTPIFTYIAALALGMEIFSRWRVASVIFSLAGTALLVTAKLSLPETNHLWILITLIGPVLLASGNIYRTSHWPKGAKPESLAPGMLLAATATLVLAAISIQGVSLFALFNTENIGLIVLQSIIFSGQFLLLFVLQKAGGPVFLSLTGAVSAAFGIPFAMALLDEPMLPALAPSALLIVTGIIFMMKEQAISNA”, the protein production entry is “failed”.
As for “MKDVTIYHNPRCSKSRETLALVEQQGITPQVVLYLETPPSVDKLKELLQQLGFSDARQLMRTKEDLYKTLNLDDRGLTQDQLLQAMADNPKLIERPIVVTQGKARIGRPPEQVLEILK”, the protein production entry is “not failed”.
The entry for “MTDQTYCDRLVQDTPFLTGHGRLSEQQVDRIILQLNRYYPQILTNKEAEKFRNPKASLRVRLCDLLSHLQRSGERDCQEFYRALYIHAQPLHSRLPSRHALQNSDCTELDSGSQSGELSNRGPMSFLAGLGLAVGLALLLYCYPPDPKGLPGTRRVLGFSPVIIDRHVSRYLLAFLADDLGGL” is “failed”; for “GSSILDRAVIEHNLLSASKLYNNITFEELGALLEIPAAKAEKIASQMITEGRMNGFIDQIDGIVHFETREA” it is “not failed”.
The entry for “MQAVLTAALPVFALILTGWLAARWRVLGPSATDALNRYVVYLSLPALLFRAMAQADLRQLADYWGFTAAVAGGIALTFGAAILACRRDGARLTDLSLEGLATSYGNAGYMGIPLCLALLGPASLAPAIITTLLTACVLFGVAIALIEFDQHRDRHWSATLLKVARALLRNPLLAAPLLGLACAAAGITLPAGLDNYAALLGASASPCALVTIGLFLAQSQPGGDRGTVGLMVDGKLLLHPAVTAVLAFAVFDMPPLWAWCAVLMAALPIGTGPFMLAQLYGRDARPSSRAILLSTVLSVPTITALVAWIGRQPLG” is “failed”; for “MIATIQNEKVIVSISDKGAELQSVRLKEDNTEYLWQGDSTYWGRRAPILFPIVGRLVDNTYYVDDKPYSLTQHGFARDLTFTVKEQSETKITYIVTSNEETLKKYPYEFELLVSYELDGQIVHVTYEVNNPTSKEMFFSIGAHPGFNFPLLEGESFTDYHLSFNGSERLETSVLEGPYLSNKKQLIAESTNELPLTYDLFKNDALIFENMNTDEISIRSHKHNKFVKVEFDGFPFVGVWTPGENAPFLCIEPWYGIADEVNPAKDFKEKKGIQSLQANETFTCRYSITIG” it is “failed”.
Consider “MSARSGFWYACSPPSAPGWCRFFDLLTCCTDEDGLMRDVALCCRSIAIDVRGLLRIDTQEGSAEKLRPSQTDVFNALASFLVAVGSQPYCNLASHPRHLDALAIPDTRYPIPDTQPMTFREPVDLVALNAASRDTLIEHLGIVFTEAGDDWLRATMPVDARTRQPYGLLHGGASVVLAETLGSSAGNLCVDMTTRMCVGLEINANHLRAATQGLVTGTARAVHVGRSTHVWDITIENPVGKRVCVSRLTLAVVARGNG”, for which the protein production result is listed as “failed”.
Under “MASSALCFFLMSDLFEPPPDFPARSALRRDCTACGACCSAPDIHALGKPLGVPCRFLGAENTQGACLCGIYLERPAVCRSYAPDWVCGEVAPLPTLEARIRRFLEIYGLDPVTGLEHHHHHH” stands “failed”.
